Experimental findings from article PMC5709234 are described below.

Test in all cases: native MS
Assay [1] addresses Trastuzumab light chain, dissociated from the mAb.
The target of assay [2] is Truncated alcohol dehydrogenase 1 (S. cerevisiae) (S. cerevisiae).
For assay [3], the target named is Alcohol dehydrogenase 1 (S. cerevisiae) (S. cerevisiae) (UniProt P00330).
Assay [4] has the same target. This is another data set of the same source.

Where “and” joins values, the source holds several entries; their conditions need not be identical. Equal values may be shown once. Read-outs that look alike come from different tables or passages of the source.

Truncated alcohol dehydrogenase 1 (S. cerevisiae) (domain or fragment), sequence (P00330 2-348): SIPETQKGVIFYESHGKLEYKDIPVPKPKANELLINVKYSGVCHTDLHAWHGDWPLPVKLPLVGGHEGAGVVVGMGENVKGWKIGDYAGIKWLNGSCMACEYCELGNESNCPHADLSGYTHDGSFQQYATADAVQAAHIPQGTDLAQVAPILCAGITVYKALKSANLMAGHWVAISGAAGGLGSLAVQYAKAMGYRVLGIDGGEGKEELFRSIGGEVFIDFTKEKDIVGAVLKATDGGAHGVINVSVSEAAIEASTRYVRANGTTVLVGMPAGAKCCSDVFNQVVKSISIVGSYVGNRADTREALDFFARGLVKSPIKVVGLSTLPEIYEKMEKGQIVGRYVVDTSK

As for “Trastuzumab light chain, dissociated from the mAb (domain or fragment)”, the stoichiometry N (usually a count of units in the complex or per binding partner) in assay [1] was 2.
“Truncated alcohol dehydrogenase 1 (S. cerevisiae) (domain or fragment)” gave a stoichiometry N in assay [2] of 4.
In assay [3], “Alcohol dehydrogenase 1 (S. cerevisiae) (from UniProt P00330 2-348) (enzyme)” displayed a percent detected as homotetramer of 92% and a stoichiometry N of 4. In assay [4], the stoichiometry N was 2 and 4.
